{"source": "patent US6987089", "molecular_target": "T1, His-CIA recombinant protein (His6-tagged mouse CIA)", "T1 chain": "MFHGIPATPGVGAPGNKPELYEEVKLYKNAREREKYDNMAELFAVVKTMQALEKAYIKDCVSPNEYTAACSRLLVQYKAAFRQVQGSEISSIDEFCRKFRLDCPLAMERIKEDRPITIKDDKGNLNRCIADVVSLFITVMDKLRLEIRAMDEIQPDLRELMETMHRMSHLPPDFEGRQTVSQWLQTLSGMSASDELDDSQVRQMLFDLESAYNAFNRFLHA"}
{"protein": "ASK1-Flag (expressed from pcDNA3-ASK1-Flag in 293 cells, immunoprecipitated with anti-Flag) (protein) MSTEADEGITFSVPPFAPSGFCTIPEGGICRRGGAAAVGEGEEHQLPPPPPGSFWNVESAAAPGIGCPAATSSSSATRGRGSSVGGGSRRTTVAYVINEASQGQLVVAESEALQSLREACETVGATLETLHFGKLDFGETTVLDRFYNADIAVVEMSDAFRQPSLFYHLGVRESFSMANNIILYCDTNSDSLQSLKEIICQKNTMCTGNYTFVPYMITPHNKVYCCDSSFMKGLTELMQPNFELLLGPICLPLVDRFIQLLKVAQASSSQYFRESILNDIRKARNLYTGKELAAELARIRQRVDNIEVLTADIVINLLLSYRDIQDYDSIVKLVETLEKLPTFDLASHHHVKFHYAFALNRRNLPGDRAKALDIMIPMVQSEGQVASDMYCLVGRIYKDMFLDSNFTDTESRDHGASWFKKAFESEPTLQSGINYAVLLLAAGHQFESSFELRKVGVKLSSLLGKKGNLEKLQSYWEVGFFLGASVLANDHMRVIQASEKLFKLKTPAWYLKSIVETILIYKHFVKLTTEQPVAKQELVDFWMDFLVEATKTDVTVVRFPVLILEPTKIYQPSYLSINNEVEEKTISIWHVLPDDKKGIHEWNFSASSVRGVSISKFEERCCFLYVLHNSDDFQIYFCTELHCKKFFEMVNTITEEKGRSTEEGDCESDLLEYDYEYDENGDRVVLGKGTYGIVYAGRDLSNQVRIAIKEIPERDSRYSQPLHEEIALHKHLKHKNIVQYLGSFSENGFIKIFMEQVPGGSLSALLRSKWGPLKDNEQTIGFYTKQILEGLKYLHDNQIVHRDIKGDNVLINTYSGVLKISDFGTSKRLAGINPCTETFTGTLQYMAPEIIDKGPRGYGKAADIWSLGCTIIEMATGKPPFYELGEPQAAMFKVGMFKVHPEIPESMSAEAKAFILKCFEPDPDKRACANDLLVDEFLKVSSKKKKTQPKLSALSAGSNEYLRSISLPVPVLVEDTSSSSEYGSVSPDTELKVDPFSFKTRAKSCGERDVKGIRTLFLGIPDENFEDHSAPPSPEEKDSGFFMLRKDSERRATLHRILTEDQDKIVRNLMESLAQGAEEPKLKWEHITTLIASLREFVRSTDRKIIATTLSKLKLELDFDSHGISQVQVVLFGFQDAVNKVLRNHNIKPHWMFALDSIIRKAVQTAITILVPELRPHFSLASESDTADQEDLDVEDDHEEQPSNQTVRRPQAVIEDAVATSGVSTLSSTVSHDSQSAHRSLNVQLGRMKIETNRLLEELVRKEKELQALLHRAIEEKDQEIKHLKLKSQPIEIPELPVFHLNSSGTNTEDSELTDWLRVNGADEDTISRFLAEDYTLLDVLYYVTRDDLKCLRLRGGMLCTLWKAIIDFRNKQT", "values": [{"measurement": "phosphorylation of GST-MKK6 (K82A) by immunoprecipitated ASK1 (immunocomplex kinase assay)", "value": "The presence of the HIS-CIA recombinant protein, however, lowered the kinase activity of ASK1, which had been activated by the UV irradiation, resulting in a significant decrease in the phosphorylation of GST-MKK6"}]}
